From patent US7785835
pIC50: −log10 of the molar value.

Columns and labels:
[1] = target: vitronectin (UniProt P04004); test: competition binding assay, displacement of [^125I]-IGF-II from VN-coated wells (300 ng/well)
[2] = target: vitronectin (UniProt P04004); test: cell-based or functional assay

Chain of insulin-like growth factor-II (P01344 25-91 limits assumed): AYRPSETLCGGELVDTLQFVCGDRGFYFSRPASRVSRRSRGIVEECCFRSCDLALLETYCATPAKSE
Chain of vitronectin (P04004 20-478 limits assumed): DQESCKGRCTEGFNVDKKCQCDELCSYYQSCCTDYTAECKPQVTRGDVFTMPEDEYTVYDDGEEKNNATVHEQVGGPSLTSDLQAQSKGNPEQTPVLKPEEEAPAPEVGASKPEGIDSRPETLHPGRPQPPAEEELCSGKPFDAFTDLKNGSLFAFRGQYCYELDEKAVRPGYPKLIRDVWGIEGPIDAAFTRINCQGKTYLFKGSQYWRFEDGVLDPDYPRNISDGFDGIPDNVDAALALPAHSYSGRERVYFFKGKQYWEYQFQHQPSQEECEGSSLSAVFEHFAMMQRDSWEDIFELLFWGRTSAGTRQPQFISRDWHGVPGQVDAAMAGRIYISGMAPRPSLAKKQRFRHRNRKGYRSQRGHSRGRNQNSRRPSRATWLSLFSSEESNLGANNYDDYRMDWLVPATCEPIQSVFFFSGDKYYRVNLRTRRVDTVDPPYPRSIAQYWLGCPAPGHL

- pIC50 [1]: 8.02
- incorporation of [^3H]-leucine into protein in human keratinocytes, % above control; 3 ng IGF-II pre-bound to VN coated wells [2]: 19%
- incorporation of [^3H]-leucine into protein in human keratinocytes, % above control; 10 ng IGF-II pre-bound to VN coated wells [2]: 29%
- incorporation of [^3H]-leucine into protein in human keratinocytes, % above control; 30 ng IGF-II pre-bound to VN coated wells [2]: 39%
- incorporation of [^3H]-leucine into protein in human keratinocytes, % above control; 100 ng IGF-II pre-bound to VN coated wells [2]: 51%
- incorporation of [^3H]-leucine into protein in human keratinocytes, % above control; 300 ng IGF-II pre-bound to VN coated wells [2]: 70%
- incorporation of [^3H]-leucine into protein in human keratinocytes, % above control; 1000 ng IGF-II pre-bound to VN coated wells [2]: 101%
- synergistic effect in protein synthesis above the calculated additive effect of VN alone and IGF-II alone [2]: 5 to 46%
Substance: insulin-like growth factor-II (from UniProt P01344 25-91) (ligand)
